Measurements published in paper PMC6859904.
Read-outs that look alike come from different tables or passages of the source.

Measured: enzymatic_activity

VCP/p97: 3D (S13D, S282D, T761D) phosphomimetic
increases: phosphorylation at S13 | phosphorylation at S282 | phosphorylation at T761
